Results on 13 sequences are retold here after the DeepSol protein solubility set.

The nature of the data set: soluble on expression in E. coli; label from the status in PepcDB or PDB records.
As for “MGSDKIHHHHHHMDVIDAVNRRMSVRAFKPDPVDAGLIRDLLEAAARAPSGGNLQPWRVQVVGGAPLEALKAAMLQRVASPDPTEYDVYPANLWEPLRSRRFQVGEDMYGALGIPREDKLQRLQWFANNGQGFGAPVQLFFSIDRRCGPPQWSDVGMLMQTFMLLAVERGLDTCPQEFWSHYNKLVDEHVGLPEGHMLFSGMALGYRDADAPVNNFRSRRAPFEEWAELKGF”, the “soluble on expression in E. coli” value is “not soluble”. As for “MGHHHHHHSHMSIPSSQYGFVFNKQSGLKLRNDLPVHKPKAGQLLLKVDAVGLCHSDLHVIYEGLDCGDNYVMGHEIAGTVAAVGDDVINYKVGDRVACVGPNGCGGCKYCRGAIDNVCKNAFGDWFGLGYDGGYQQYLLVTRPRNLSRIPDNVSADVAAASTDAVLTPYHAIKMAQVSPTSNILLIGAGGLGGNAIQVAKAFGAKVTVLDKKKEARDQAKKLGADAVYETLPESISPGSFSACFDFVSVQATFDVCQKYVEPKGVIMPVGLGAPNLSFNLGDLALREIRILGSFWGTTNDLDDVLKLVSEGKVKPVVRSAKLKELPEYIEKLRNNAYEGRVVFNP”, the “soluble on expression in E. coli” value is given as “soluble”. In the case of “MISNQILQNTIEGLKGISRIDFCVLDTEGKALATTFEDTWNYESAVLSFVESPADSQVIQGCQFFKIFDEQQLEYVLLAGGESEDVYMLGKIAAFQVQSLLVAYKERFDKDNFIKNLLLDNLLLVDIYNRAKKLHIDTEAKRVIFIIETSHEKDSVALDNVRNLLGGKSRDFVTAVDEKNIIVVKELADKAGSRELEKMAKEMMEILRAESEDDKIHIAYGTVVNDIKEVSKSYKEAKLALDVGKIFFDEKDIVAYSTLGIGRLIYQLPIPLCKMFIKEIFEGKSPDEFDEETLTTINKFFENSLNVSETSRQLYIHRNTLVYRLDKLQKSTGLDLRVFEDAITFKIALMVVKYMKYMETLEY”, the “soluble on expression in E. coli” value is recorded as “not soluble”.

For the sequence “MAYFIDRRLNGKNKSTVNRQRFLRRYKSQIKQSISEAINKRSVTDIESGESVSIPNADINEPMFHQGRGGHRHRVHPGNDHFVQNDKIERPQGGGGSGSGQGDASKDGEGDDEFVFQISKDEYLDLLFEDLALPNLKKTQHRQMTEYKMHRAGYTANGVPANISVVRSLQNSLARRMAMTAGKRRTLHELEESLEQLAYTEPAQLLEEERLREDIAELRKKIARVPFIDTFDLRYKNYERRAEPSSQAVMFCLMDVSGSMDQATKDMAKRFYILLYLFLSRNYKNVDVVYIRHHTQAKEVDEQEFFYSQETGGTIVSSALKLMEEVVRERYDPSQWNIYAAQASDGDNWADDSPLCHQILASKLLPMVRYYSYIEITRRSHQTLWREYETLRDTFDNFAMQHIRDQDDIYPVFRELFRKQTVGHLEHHHHHH”, the “soluble on expression in E. coli” value is recorded as “not soluble”. As to “MAHHHHHHMCCTFWGLRLDNTCNNMKSVDIIKCDMCFFSHDGLFLIYTIINKIFVIQVKNLEMYRIYVESYKVDDIKLSSDNIHFLTLIKNKGCVCIYSFYKNNLINKICDYFQTYDHSFFLSKHNNIGIVKYEKKCLTIYNMNNPEKCLINIENIKYQNKGYCSNYINTIFACLVENKKDVNILLLSLFNYTIIKIIKCINFFPNDILFSKSDHIIAYSNKNRSLHIYSIDGDLLHVYKYAEDLGGNTKNVKKKKKKKKKSKFCAWKILKKSSFSFWITHCK”, the “soluble on expression in E. coli” value was “not soluble”. Next, “MAVTISGVRKHSPAYRHGIQAGERLLTLNGNEIMDVLDYRFYQLNTALVLELENNRGERRTVSLKKPEYEEIGLEFETYLMDRQHSCKNKCVFCFIDQLPKGLRKSLYFKDDDSRLSFLFGNYVTLTNLTEHEISRIIKMHISPMNISVHTTNPELRVKMMKNPRAGEALSIIRRFAQAGIKINCQIVLCPGYNDGEELKRTLSDLETMCPQVQAVAVVPVGITRYRQNLPEMRSFTRETAGEAIDLIESFGEKCLQKYGTRVAYPGDEFYLKAERPLPPAGFYEDFSMLENGVGLLPLLMDEFYSALEEAGETGGRKREITIATGMAPREYIRGFLDDAIKKFPHISGRVTPIVNRFFGETITVSGLVTGTDLIEQLSSVDLGDELLIPACMLRREGDLFLDDVSLQDVEAALKVPVRPVPNDGYAFLDAILGSESLEHHHHHH”: “not soluble”; “TLAAKAAEIHPTSLDTRLDVAAAPAELQQVAQSFNAMLERLDDGYQRLQQFSADLAHEIRTPIGSLMGHGQVALRQPRSNEEYQALIASNQEELERIARMVESILFLARADDVRAAVERSRLDLGEELRRQAEYFEGLAEERGLSLDVQVSGQLRADPQLFRRALSNLLANAIRYASADSLIEVRGLRRSGEFLLSVENACDRLPAEPLSRLFDRFYRGDAARSDAQSSGLGLAIVQAIMRLHGGRAEASAPAPGRIRFDLAFPAQD”: “not soluble”. Consider “MSLKTITFFKRVLASAALVSVCGFACATNNGKQFIHNDTMEGGKLVCREIYAMNDAASGILNPVKMYKYSYDTDQQKTVKSTYAWNIFKNTWETESRTVISRYETETSVEYSVWNKEKGSFDLSKKYIYITDNNNQLIAQYAYKMNSRTNQWILEKDALTPIYENIYATTREGHHHHHH”, for which the “soluble on expression in E. coli” value is “soluble”. Turning to “MLALMDADGNIAWSGEYDEWGNQLNEENPHHLHQPYRLPGQQYDKESGLYYNRNRYYDPLQGRYITQDPIGLEGGWSLYAYPLNPVNGIDPLGLSPADVALIRRKDQLNHQRAWDILSDTYEDMKRLNLGGTDQFFHCMAFCRVSKLNDAGVSRSAKGLGYEKEIRDYGLNLFGMYGRKVKLSHSEMIEDNKKDLAVNDHGLTCPSTTDCSDRCSDYINPEHKKTIKALQDAGYLKLEHHHHHH”, the “soluble on expression in E. coli” value is recorded as “not soluble”.

For “SYHLDTTAPPPTNLSTLPNNTLFHLWRPRAHILPAEGQIGDPCAHYTDPSTGLFHVGFLHDGDGIAGATTANLATYTDTSDNGSFLIQPGGKNDPVAVFDGAVIPVGVNNTPTLLYTSVSFLPIHWSIPYTRGSETQSLAVARDGGRRFDKLDQGPVIADHPFAVDVTAFRAPFVFRSARLDVLLSLDEEVARNETAVQQAVDGWTEKNAPWYVAVSGGVHGVGPAQFLYRQNGGNASEFQYWEYLGEWWQEATNSSWGDEGTWAGRWGFNFETGNVLFLTEEGHDPQTGEVFVTLGTEGSGLPIVPQVSSIHDMLWAAGEVGVGSEQEGAKVEFSPSMAGFLDWGFSAYAAAGKVLPASSAVSKTSGVEVDRYVSFVWLTGDQYEQADGFPTAQQGWTGSLLLPRELKVQTVENVVDNELVREEGVSWVVGESDNQTATLRTLGITIARETKAALLANGSVTAEEDRTLQTAAVVPFAQSPSSKFFVLTAQLEFPASARSSPLQSGFEILASELERTAIYYQFSNESLVVDRSQTSAAAPTNPGLDSFTESGKLRLFDVIENGQEQVETLDLTVVVDNAVVEVYANGRFALSTWARSWYDNSTQIRFFHNGEGEVQFRNVSVSEGLYNAWPER”, the “soluble on expression in E. coli” value is “soluble”. As for “MRGLKTFSILGLIVALLLVAACGNTDNSSKKESSTKDTISVKDENGTVKVPKDAKRIVVLEYSFADALAALDVKPVGIADDGKKKRIIKPVREKIGDYTSVGTRKQPNLEEISKLKPDLIIADSSRHKGINKELNKIAPTLSLKSFDGDYKQNINSFKTIAKALNKEKEGEKRLAEHDKLINKYKDEIKFDRNQKVLPAVVAKAGLLAHPNYSYVGQFLNELGFKNALSDDVTKGLSKYLKGPYLQLDTEHLADLNPERMIIMTDHAKKDSAEFKKLQEDATWKKLNAVKNNRVDIVDRDVWARSRGLISSEEMAKELVELSKKEQK”, the “soluble on expression in E. coli” value was “not soluble”. For the sequence “MPVIPKSGRLAAVGVLGRIVDVLMRLSLLIRGAVPGGVAAAAATRYRDRIDTGTTATYYGRVVREGGYVVLQYWFFYAMNDWRSVYGGVNDHEADWEKVTVYLVEEENGEYRPVWVGASSHEYLGDDLRRRWDDPELHRDGNHPIIYVGAGSHSHQMLPGDYLIQVDPAFLRGVLRAWRRFTARFLPSSSRLRGIGVPFVDYARGDGVRVGPGGERTWTPVLIDDTTPWVRGYRGLWGRNTRDWFDGERAPSGPRYERLEHHHHHH”, the “soluble on expression in E. coli” value was “soluble”. With “MSLRKFMVLGYGEIGKLAIKHLLSHKVECIYLIVRDKSKASDLEGEIVEVLDFNEKNQVINEIDCIVSCTAAPHTVVRNEDIKTEGETIHIYDLAVPRDVDKELSEKERVILKDIDEISKIDDKNKKIRKERMEEYKHIVEESIDEFLNWLKIREVSSKIRNIKIRENEICSERIKTFSNKGNGENAKLAERMIKSTADAYVNRAIELLKSEALKGSDSYCAEIIEKIFLTEGHHHHHH”, the “soluble on expression in E. coli” value was “not soluble”.
